The test deals with E-cadherin (human (endogenous in MCF7, HaCaT and FFPE human tissue)). Nature of the test: MolBoolean (proximity assay with antibody-DNA conjugates); FFPE human tissue sections after deparaffinisation and antigen retrieval; secondary proximity probes; percentage of RCPs in each category per frame.
Chain of E-cadherin (human (endogenous in MCF7, HaCaT and FFPE human tissue)) (P12830 23-882): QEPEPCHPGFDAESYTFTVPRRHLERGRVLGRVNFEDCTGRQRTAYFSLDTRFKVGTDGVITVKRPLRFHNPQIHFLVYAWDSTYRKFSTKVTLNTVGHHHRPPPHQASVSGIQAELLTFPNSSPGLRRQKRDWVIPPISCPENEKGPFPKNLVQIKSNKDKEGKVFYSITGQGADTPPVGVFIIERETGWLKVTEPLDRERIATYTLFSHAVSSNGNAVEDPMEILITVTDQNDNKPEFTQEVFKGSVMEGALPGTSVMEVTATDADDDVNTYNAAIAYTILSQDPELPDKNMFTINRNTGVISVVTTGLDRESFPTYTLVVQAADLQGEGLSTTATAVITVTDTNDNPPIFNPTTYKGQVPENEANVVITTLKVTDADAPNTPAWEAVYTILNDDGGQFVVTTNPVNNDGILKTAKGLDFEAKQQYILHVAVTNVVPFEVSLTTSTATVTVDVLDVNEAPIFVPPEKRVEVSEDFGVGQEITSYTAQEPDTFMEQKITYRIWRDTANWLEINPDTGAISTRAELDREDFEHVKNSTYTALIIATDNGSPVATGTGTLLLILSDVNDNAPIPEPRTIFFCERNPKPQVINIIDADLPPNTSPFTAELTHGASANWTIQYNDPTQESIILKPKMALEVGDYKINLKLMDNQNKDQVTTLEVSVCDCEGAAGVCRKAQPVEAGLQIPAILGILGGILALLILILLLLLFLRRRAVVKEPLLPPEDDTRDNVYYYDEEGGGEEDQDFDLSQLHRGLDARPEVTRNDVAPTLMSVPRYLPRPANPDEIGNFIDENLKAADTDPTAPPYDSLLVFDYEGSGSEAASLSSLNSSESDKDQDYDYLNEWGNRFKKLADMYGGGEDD

Turning to “β-catenin (from UniProt P35222 1-781) (natural protein)”, the percent of the detected signal per image from complexes was determined as 50%.

(Values after article PMC9375095.)
